Data on three molecules can be found in patent EP4219720A2 (Caribou Biosciences, Inc., dated 2023).

For experiment [1], the target named is T1, CasBCDE complex (Strep-tag II-HRV3C-Cse2, Cas7, Cas5, Cas6) with J3/L3 crRNAs (Escherichia coli K-12 MG1655, UniProt Q46899 2-363; Q46898 1-224; Q46897 2-199).
T1 construct: It also holds a crRNA (J3 or L3 guide), so it is a ribonucleoprotein; Removal of the Strep tag is not described; also called Cas8-less Cascade complex; Cas8-minus Cascade complex
T1 sequence 1: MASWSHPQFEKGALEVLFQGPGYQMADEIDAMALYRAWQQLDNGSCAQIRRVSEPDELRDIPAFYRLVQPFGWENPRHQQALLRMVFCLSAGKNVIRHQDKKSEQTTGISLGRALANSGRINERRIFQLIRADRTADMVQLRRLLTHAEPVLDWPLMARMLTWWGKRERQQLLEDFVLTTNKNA
T1 sequence 2: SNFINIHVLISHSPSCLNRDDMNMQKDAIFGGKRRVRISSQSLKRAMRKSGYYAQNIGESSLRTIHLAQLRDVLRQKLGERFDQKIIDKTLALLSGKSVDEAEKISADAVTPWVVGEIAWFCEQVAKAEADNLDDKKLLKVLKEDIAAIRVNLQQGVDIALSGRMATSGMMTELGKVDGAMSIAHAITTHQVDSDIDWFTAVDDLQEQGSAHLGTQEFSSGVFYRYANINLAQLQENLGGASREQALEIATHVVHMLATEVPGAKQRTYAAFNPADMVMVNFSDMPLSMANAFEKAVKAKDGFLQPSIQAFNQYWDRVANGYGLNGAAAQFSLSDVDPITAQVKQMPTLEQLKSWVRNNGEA
T1 sequence 3: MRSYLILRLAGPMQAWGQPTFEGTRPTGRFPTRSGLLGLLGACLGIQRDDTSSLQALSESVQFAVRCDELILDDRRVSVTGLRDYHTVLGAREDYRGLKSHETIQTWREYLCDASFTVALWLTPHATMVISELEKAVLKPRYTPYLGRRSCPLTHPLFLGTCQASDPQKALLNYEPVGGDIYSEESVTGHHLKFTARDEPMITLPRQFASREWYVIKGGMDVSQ
T1 sequence 4: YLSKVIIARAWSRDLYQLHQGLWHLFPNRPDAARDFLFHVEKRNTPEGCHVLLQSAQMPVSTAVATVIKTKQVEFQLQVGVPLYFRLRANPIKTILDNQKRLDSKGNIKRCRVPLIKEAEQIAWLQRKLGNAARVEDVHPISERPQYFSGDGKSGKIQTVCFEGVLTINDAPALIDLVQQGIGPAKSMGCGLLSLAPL
Put plainly: reconstitution from separately purified parts; tested by plasmid DNA cleavage.

In experiment [2] the target is T2, Cas8, Cas7, Cas6 and Cas5 of E. coli Type I-E Cascade with J3 crRNA (Escherichia coli K-12 MG1655, UniProt Q46901 1-502; Q46899 2-363; Q46897 2-199; Q46898 1-224).
T2 construct: They also hold the J3 crRNA; also called remaining Cascade subunits
T2 sequence 1: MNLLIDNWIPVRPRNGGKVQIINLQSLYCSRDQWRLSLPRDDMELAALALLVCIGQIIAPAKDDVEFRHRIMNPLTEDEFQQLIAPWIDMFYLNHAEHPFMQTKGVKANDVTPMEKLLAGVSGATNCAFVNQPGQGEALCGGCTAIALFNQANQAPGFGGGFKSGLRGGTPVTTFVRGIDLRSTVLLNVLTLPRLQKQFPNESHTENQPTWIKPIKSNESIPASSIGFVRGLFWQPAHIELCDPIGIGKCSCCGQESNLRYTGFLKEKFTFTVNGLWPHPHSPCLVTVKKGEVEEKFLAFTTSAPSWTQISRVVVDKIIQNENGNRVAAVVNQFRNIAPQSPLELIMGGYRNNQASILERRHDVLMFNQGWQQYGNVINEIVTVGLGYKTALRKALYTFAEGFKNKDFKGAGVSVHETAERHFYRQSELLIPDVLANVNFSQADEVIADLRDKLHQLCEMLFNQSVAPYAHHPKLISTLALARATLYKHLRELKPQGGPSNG
T2 sequence 2: T1 sequence 2
T2 sequence 3: T1 sequence 4
T2 sequence 4: T1 sequence 3
Briefly: co-expression in E. coli, Ni-NTA capture by His6 on Cse2, SEC, Coomassie SDS-PAGE.

In experiment [3] the target is T3, Cas7, Cas6 and Cas5 of E. coli Type I-E Cascade with L3 crRNA (Escherichia coli K-12 MG1655, UniProt Q46899 2-363; Q46897 2-199; Q46898 1-224).
T3 construct: They also hold the L3 crRNA; This grouping is mine
T3 sequence 1: T1 sequence 2
T3 sequence 2: T1 sequence 4
T3 sequence 3: T1 sequence 3
Briefly: co-expression in E. coli, Strep-Tactin capture by Strep-tag II on Cse2, SEC, Coomassie SDS-PAGE.

B1: NLS-GGS-FokISharkey-30aa-linker-Cas8 (after TEV cleavage) (other)
chain: SNMPKKKRKVQLVKSELEEKKSELRHKLKYVPHEYIELIEIARNPTQDRILEMKVMEFFMKVYGYRGEHLGGSRKPDGAIYTVGSPIDYGVIVDTKAYSGGYNLPIGQADEMQRYVEENQTRNKHINPNEWWKVYPSSVTEFKFLFVSGHFKGNYKAQLTRLNHITNCNGAVLSVEELLIGGEMIKAGTLTLEEVRRKFNNGEINFSGSETPGTSESATPESGGSGSSGGSGSSGGMNLLIDNWIPVRPRNGGKVQIINLQSLYCSRDQWRLSLPRDDMELAALALLVCIGQIIAPAKDDVEFRHRIMNPLTEDEFQQLIAPWIDMFYLNHAEHPFMQTKGVKANDVTPMEKLLAGVSGATNCAFVNQPGQGEALCGGCTAIALFNQANQAPGFGGGFKSGLRGGTPVTTFVRGIDLRSTVLLNVLTLPRLQKQFPNESHTENQPTWIKPIKSNESIPASSIGFVRGLFWQPAHIELCDPIGIGKCSCCGQESNLRYTGFLKEKFTFTVNGLWPHPHSPCLVTVKKGEVEEKFLAFTTSAPSWTQISRVVVDKIIQNENGNRVAAVVNQFRNIAPQSPLELIMGGYRNNQASILERRHDVLMFNQGWQQYGNVINEIVTVGLGYKTALRKALYTFAEGFKNKDFKGAGVSVHETAERHFYRQSELLIPDVLANVNFSQADEVIADLRDKLHQLCEMLFNQSVAPYAHHPKLISTLALARATLYKHLRELKPQGGPSNG
notes: The tag was removed with TEV protease; also called Fokl-Cas8 fusion protein
Consider B1, for which the binding result in experiment [1] is given as “binds”.

B2: His6-HRV3C-Cse2 (other)
chain: MAEHHHHHHGALEVLFQGPGYQMADEIDAMALYRAWQQLDNGSCAQIRRVSEPDELRDIPAFYRLVQPFGWENPRHQQALLRMVFCLSAGKNVIRHQDKKSEQTTGISLGRALANSGRINERRIFQLIRADRTADMVQLRRLLTHAEPVLDWPLMARMLTWWGKRERQQLLEDFVLTTNKNA
notes: The tagged subunit by which the Cascade complex was captured on Ni-NTA resin
As to B2, in experiment [2], the binding result was “binds”.

B3: Strep-tag II-HRV3C-Cse2 (other)
chain: T1 sequence 1
notes: The tagged subunit by which the CasBCDE complex was captured on Strep-Tactin resin
Consider B3, for which the binding result in experiment [3] is “binds”.
